Substitutions are numbered along the chain they refer to. In names and notes the source's numbering stands.
T1: TNFR1 (Homo sapiens, UniProt P19438)
T1 chain: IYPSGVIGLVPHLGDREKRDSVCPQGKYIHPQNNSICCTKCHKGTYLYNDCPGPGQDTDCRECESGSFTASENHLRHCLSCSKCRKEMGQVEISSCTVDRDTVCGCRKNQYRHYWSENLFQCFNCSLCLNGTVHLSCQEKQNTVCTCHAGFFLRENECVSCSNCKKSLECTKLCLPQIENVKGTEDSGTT

B1: A67V (designed binder)
chain: SMEEEVEKAAKEYEKKKKEAIEKHLEKLKAKDKEAAERFLKELEEAAKEYAKDEAKTMSEEEAKRRVKKYKEKVLLSELSEEEQKEIKEAEEKLVRTILKYVEEAAK
B2: E91Q (designed binder)
chain: B1 chain with V67A, E91Q
B3: E78G (designed binder)
chain: B1 chain with V67A, E78G
B4: T57N (designed binder)
chain: B1 chain with T57N, V67A
B5: M58G (designed binder)
chain: B1 chain with M58G, V67A
B6: R96E (designed binder)
chain: B1 chain with V67A, R96E
B7: E12D (designed binder)
chain: B1 chain with E12D, V67A
B8: E45I (designed binder)
chain: B1 chain with E45I, V67A
B9: K88F (designed binder)
chain: B1 chain with V67A, K88F
B10: V102G (designed binder)
chain: B1 chain with V67A, V102G
B11: L99M (designed binder)
chain: B1 chain with V67A, L99M
B12: L94P (designed binder)
chain: B1 chain with V67A, L94P
B13: I87Y (designed binder)
chain: B1 chain with V67A, I87Y
B14: A36E (designed binder)
chain: B1 chain with A36E, V67A
B15: F39E (designed binder)
chain: B1 chain with F39E, V67A
B16: R96Y (designed binder)
chain: B1 chain with V67A, R96Y
B17: K52A (designed binder)
chain: B1 chain with K52A, V67A
B18: E91G (designed binder)
chain: B1 chain with V67A, E91G
B19: L40I (designed binder)
chain: B1 chain with L40I, V67A
B20: E86G (designed binder)
chain: B1 chain with V67A, E86G
B21: D32L (designed binder)
chain: B1 chain with D32L, V67A
B22: A106N (designed binder)
chain: B1 chain with V67A, A106N
B23: K27W (designed binder)
chain: B1 chain with K27W, V67A
B24: A30C (designed binder)
chain: B1 chain with A30C, V67A
B25: K64P (designed binder)
chain: B1 chain with K64P, V67A
B26: S77V (designed binder)
chain: B1 chain with V67A, S77V
B27: K18D (designed binder)
chain: B1 chain with K18D, V67A
B28: V102A (designed binder)
chain: B1 chain with V67A, V102A
B29: M58P (designed binder)
chain: B1 chain with M58P, V67A
B30: K41G (designed binder)
chain: B1 chain with K41G, V67A
B31: E26D (designed binder)
chain: B1 chain with E26D, V67A
B32: M2H (designed binder)
chain: B1 chain with M2H, V67A
B33: R66Q (designed binder)
chain: B1 chain with R66Q, V67A
B34: L43A (designed binder)
chain: B1 chain with L43A, V67A
B35: E89N (designed binder)
chain: B1 chain with V67A, E89N
B36: S1G (designed binder)
chain: B1 chain with S1G, V67A
B37: K93A (designed binder)
chain: B1 chain with V67A, K93A
B38: K48Q (designed binder)
chain: B1 chain with K48Q, V67A
B39: E44P (designed binder)
chain: B1 chain with E44P, V67A
B40: K73D (designed binder)
chain: B1 chain with V67A, K73D
B41: I21E (designed binder)
chain: B1 chain with I21E, V67A
B42: L76P (designed binder)
chain: B1 chain with V67A, L76P
B43: S80K (designed binder)
chain: B1 chain with V67A, S80K
B44: E92K (designed binder)
chain: B1 chain with V67A, E92K
B45: A105C (designed binder)
chain: B1 chain with V67A, A105C
B46: L79F (designed binder)
chain: B1 chain with V67A, L79F
B47: V102T (designed binder)
chain: B1 chain with V67A, V102T
B48: V74P (designed binder)
chain: B1 chain with V67A, V74P
B49: A51S (designed binder)
chain: B1 chain with A51S, V67A
B50: K68D (designed binder)
chain: B1 chain with V67A, K68D
B51: E3F (designed binder)
chain: B1 chain with E3F, V67A
B52: L99P (designed binder)
chain: B1 chain with V67A, L99P
B53: A35N (designed binder)
chain: B1 chain with A35N, V67A
B54: A47N (designed binder)
chain: B1 chain with A47N, V67A
B55: Y50C (designed binder)
chain: B1 chain with Y50C, V67A
B56: K68S (designed binder)
chain: B1 chain with V67A, K68S
B57: A36L (designed binder)
chain: B1 chain with A36L, V67A
B58: A106M (designed binder)
chain: B1 chain with V67A, A106M
B59: V95N (designed binder)
chain: B1 chain with V67A, V95N

Biological target: T1, TNFR1
Test: yeast display SC50

Row | apparent Kd (screen) [nM] | Binder
1 | 7.78 | B1
2 | 11.4 | B2
3 | 3 | B3
4 | 2.05 | B4
5 | 22.2 | B5
6 | 4.39 | B6
7 | 1.05 | B7
8 | 2.73 | B8
9 | 0.539 | B9
10 | 0.446 | B10
11 | 3 | B11
12 | 16.7 | B12
13 | 12.5 | B13
14 | 0.446 | B14
15 | 4.83 | B15
16 | 3.99 | B16
17 | 0.49 | B17
18 | 9.41 | B18
19 | 0.79 | B19
20 | 1.16 | B20

Row | apparent Kd (screen) [nM] | Binder
21 | 2.73 | B21
22 | 1.05 | B22
23 | 1.16 | B23
24 | 0.869 | B24
25 | 2.73 | B25
26 | 2.73 | B26
27 | 0.956 | B27
28 | 0.49 | B28
29 | 0.653 | B29
30 | 0.869 | B30
31 | 0.446 | B31
32 | 0.49 | B32
33 | 11.4 | B33
34 | 0.49 | B34
35 | 0.956 | B35
36 | 0.653 | B36
37 | 0.79 | B37
38 | 0.446 | B38
39 | 6.43 | B39
40 | 5.84 | B40

Row | apparent Kd (screen) [nM] | Binder
41 | 0.539 | B41
42 | 1.54 | B42
43 | 1.54 | B43
44 | 12.5 | B44
45 | 1.4 | B45
46 | 2.05 | B46
47 | 0.446 | B47
48 | 0.446 | B48
49 | 1.86 | B49
50 | 1.27 | B50
51 | 20.2 | B51
52 | 15.2 | B52
53 | 1.69 | B53
54 | 1.4 | B54
55 | 0.956 | B55
56 | 0.718 | B56
57 | 1.05 | B57
58 | 3.99 | B58
59 | 1.16 | B59
